Reference: US12590158 (XIYUAN ANJIAN MEDICINE SHANGHAI, dated 2026)
Changes are numbered by the printed parent chain.

B1: anti-TrkA antibody 40D6 (antibody, V domains shown)
VH: QVQLQQSGTELMKPGASVKISCKATGYTFSRYWIEWVKQRPGHGLEWIGEILPGRSSTNYNEKFKGKATFTADTSSNTAYMQLSSLTSEDSAVYYCTRVSQLHIYFDYWGQGTTVTVSS
VL: DIVMTQVVPSVPVTPGESVSISCRSSKSLLHSNGNTYLYWFQQRPGQSPQLLIYRMSNLASGVPDRFSGSGSGTAFTLRISRVEAEDVAFYYCMQHLEFPLTFGAGTKLELK
notes: Murine monoclonal antibody purified from hybridoma medium by protein G
B2: anti-TrkA antibody 42A11 (antibody, V domains shown)
VH: QVQLQQPGAELVKPGASVKLSCKASGYTFTNYWMHWVKQRPGQGLEWIGEIYPSNGRTNYNEKFKTKATLTVDKSSSTAYMHLSSLTSEDSAVYYCAGSRYDAMDFWGQGTSVTVSS
VL: QIVLTQSPAIMSASPGEKVTMTCSASSIISYMHWYQQKSGTSPKRWIYDTSKLASGVPARFSGSGSGTSYSLTISGMEAEDAATYYCHQWTSNPLTFGGGTKLELK
notes: as for B1
B3: anti-TrkA antibody 42H6 (antibody, V domains shown)
VH: QVQLQQPGVELVKPGASVKLSCKTSGYTFTSYWMHWVKQRPGQGLEWIGEIYSSNGLTNYNEKFKNKATLTVDKSSSTAYMQLTSLTSEDSAIYYCARHWYVFLDHWGQGTTLTVSS
VL: QAVVTQESALTTSPGETVTLTCRSSTGAVTTSNHANWVQEKPDHLFTGLIGGINNRAPGVPARFSGSLIGDKAALTITGAQTEDEAIYFCALWYSNHWVFGGGTRLTVL
notes: as for B1
B4: humanized anti-TrkA antibody 42F5-01 (antibody, V domains shown)
VH: QVQLVQSGAEVKKPGASVKVSCKSSGYTFTNYWMHWVRQAPGQGLEWMGEIYPNNGRVNYNEKFKNRVTMTVDISISTAYMELSRLRSDDTAVYYCARSRYDPMEDWGQGTTVTVSS
VL: DVQLTQSPSSLSASVGDRVTITCSASSSVGYMHWYQQKPGKAPKRLIYDTSKLASGVPSRFSGSGSGTDYTLTISSLQPEDFATYFCQQWSSIPLTFGQGTRLEIK
notes: VH grafted to human IgG4 heavy chain constant region, VL to human Kappa light chain constant region; also called 43F5-01 [sic]
B5: humanized anti-TrkA antibody 42F5-05 (antibody, V domains shown)
VH: B4 VH
VL: B4 VL with D1Q
notes: VH grafted to human IgG4 heavy chain constant region, VL to human Kappa light chain constant region
B6: human-mouse chimeric antibody 42F5-Chi (antibody, V domains shown)
VH: QVQLQQPGAELVKPGASVKLSCKSSGYTFTNYWMHWVRQRPGQGLEWIGEIYPNNGRVNYNEKFKNRATLTVDISSSTAYMQLSSLTSEDSAVYYCARSRYDPMEDWGQGTSVTVSS
VL: QVVLTQSPAIMSASPGEKVTMTCSASSSVGYMHWYQQKSGTSPKRWIYDTSKLASGVPTRFSGSGSGTSYSLTISSMEAEDAATYFCQQWSSIPLTFGSGTRLEIK

Each binder was assayed against T1, full-length human TrkA expressed on cells (human, UniProt P04629 33-796) (assay: cell-based or functional assay).
T1 sequence (P04629 33-796): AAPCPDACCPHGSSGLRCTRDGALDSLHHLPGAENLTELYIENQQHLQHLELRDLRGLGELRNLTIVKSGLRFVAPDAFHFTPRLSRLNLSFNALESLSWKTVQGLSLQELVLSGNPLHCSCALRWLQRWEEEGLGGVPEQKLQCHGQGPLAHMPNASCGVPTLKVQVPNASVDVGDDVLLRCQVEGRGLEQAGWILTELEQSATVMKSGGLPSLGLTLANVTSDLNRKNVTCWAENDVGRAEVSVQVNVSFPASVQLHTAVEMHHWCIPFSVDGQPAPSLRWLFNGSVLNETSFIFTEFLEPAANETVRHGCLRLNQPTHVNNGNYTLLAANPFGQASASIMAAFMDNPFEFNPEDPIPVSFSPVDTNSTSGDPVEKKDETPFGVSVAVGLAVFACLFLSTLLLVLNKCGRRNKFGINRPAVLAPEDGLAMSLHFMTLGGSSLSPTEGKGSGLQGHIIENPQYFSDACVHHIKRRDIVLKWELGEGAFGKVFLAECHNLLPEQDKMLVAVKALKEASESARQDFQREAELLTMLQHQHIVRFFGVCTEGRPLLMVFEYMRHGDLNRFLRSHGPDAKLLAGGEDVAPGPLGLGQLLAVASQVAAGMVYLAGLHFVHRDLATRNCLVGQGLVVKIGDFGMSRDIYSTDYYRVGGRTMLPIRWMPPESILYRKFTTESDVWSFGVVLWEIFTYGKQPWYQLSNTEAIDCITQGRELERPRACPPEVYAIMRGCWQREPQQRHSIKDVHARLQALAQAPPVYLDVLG

inhibition of NGF-induced TrkA/Ba/F3 cell proliferation at 2.5 µg/mL (16.67 nM) or higher [%] | Binder
100 | B1
100 | B2
100 | B3

Target: T1, full-length human TrkA expressed on …
Assay: cell-based or functional assay
Remark: another data set of the same source

IC50 of inhibiting NGF-induced TF-1 cell proliferation [nM] | Binder
8.53 | B1
1.46 | B2
3.58 | B3

Target: T1, full-length human TrkA expressed on …
Assay: cell-based or functional assay
Remark: another data set of the same source

IC50 of inhibiting NGF-induced TrkA/Ba/F3 cell proliferation [nM] | Binder
1.8 | B1
0.738 | B2
0.782 | B3

Target: T1, full-length human TrkA expressed on …
Assay: cell-based or functional assay
Remark: another data set of the same source

IC50 of inhibiting NGF-induced TF-1 cell proliferation [nM] | Binder
1.57 | B4
1.48 | B5
1.55 | B6

Target: T1, full-length human TrkA expressed on …
Assay: cell-based or functional assay
Remark: another data set of the same source

IC50 of inhibiting NGF-induced TrkA/Ba/F3 cell proliferation [nM] | Binder
2.97 | B4
4.42 | B5
2.92 | B6

What follows are binders tested against fusion protein (fused to human Fc) containing only the portion of human TrkA extracellular region that binds NGF (TrkA 192-402) (ACROBiosystems TRA-H5258) (human) (UniProt P04629) (assay: ELISA, coated human TrkA (192-402)-hFc).
Sequence of fusion protein (fused to human Fc) containing only the portion of human TrkA extracellular region that binds NGF (TrkA 192-402) (ACROBiosystems TRA-H5258) (human) (P04629 192-402 limits assumed, form in doubt): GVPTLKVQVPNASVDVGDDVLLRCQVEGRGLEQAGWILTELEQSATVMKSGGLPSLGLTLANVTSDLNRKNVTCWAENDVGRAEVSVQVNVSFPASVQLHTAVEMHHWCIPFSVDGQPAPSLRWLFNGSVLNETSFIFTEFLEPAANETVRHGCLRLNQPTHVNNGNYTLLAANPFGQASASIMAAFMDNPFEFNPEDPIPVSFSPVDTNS

EC50 [nM] | Binder
0.195 | B1
0.234 | B2
0.175 | B3

The binders below were run against T1, full-length human TrkA expressed on … (assay: flow cytometry titration on TrkA/CHO cells).
Description: (§1) The cells were cultured according to the manufacturer's instruction. The cells were harvested in the logarithmic growth phase, re-suspended in flow buffer (PBS+2% FBS, pH 7.4), and added into 96-well plate, 10^5 cells per well (50 µl). 50 µl of 100 µg/mL humanized anti-TrkA antibody was added, incubated at room temperature for 60 min, and centrifuged at 1200 rpm. The supernatant was discarded and the cells were washed 3 times. FITC-labeled goat anti-human Fc antibody (Abeam, ab97224) was diluted to 5 µg/mL with flow buffer and used to re-suspend the cells, incubated at room temperature for 30 min in the dark, centrifuged, and the supernatant was discarded. After washing 3 times, the cells were re-suspended with 7AAD solution (Biolegend, 420403), incubated for 10 min at room temperature, and the binding of the antibody was detected with a flow cytometer (BioRad, ZE5).
The binding curve of the humanized anti-TrkA antibodies and TrkA/CHO cells was detected with the same flow cytometry.

EC50 [nM] | Binder
0.605 | B4
0.68 | B5
0.49 | B6

What follows are binders tested against T2, TrkA extracellular region (33-417) protein comprising human Fc (ACROBiosystems TRA-H5259) (human, UniProt P04629 33-417) (assay: ELISA, coated human TrkA (33-417)-hFc, anti-mouse Fc-HRP).
T2 construct: range 33-417; Bought fusion protein; also called human TrkA (33-417); human TrkA extracellular region
T2 sequence (P04629 33-417 limits assumed): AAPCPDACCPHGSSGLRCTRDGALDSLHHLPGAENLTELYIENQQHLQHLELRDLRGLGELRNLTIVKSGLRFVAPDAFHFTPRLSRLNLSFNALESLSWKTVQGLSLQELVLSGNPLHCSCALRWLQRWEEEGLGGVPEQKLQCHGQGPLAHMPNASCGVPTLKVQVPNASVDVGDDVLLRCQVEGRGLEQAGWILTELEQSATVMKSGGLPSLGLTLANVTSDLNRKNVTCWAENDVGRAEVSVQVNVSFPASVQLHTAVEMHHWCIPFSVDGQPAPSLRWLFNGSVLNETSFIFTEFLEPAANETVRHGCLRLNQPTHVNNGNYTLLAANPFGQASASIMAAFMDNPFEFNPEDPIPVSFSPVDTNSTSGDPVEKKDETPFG
Description: (§2) Example 2: ELISA Detection of the Binding of Murine Anti-TrkA Antibodies to Human TrkA The binding abilities of the anti-TrkA antibodies were detected by using a TrkA extracellular region (33-417) protein comprising human Fc (Beijing ACROBiosystems Co., Ltd., TRA-H5259). Each well of a 96-well microtiter plate was coated with 50 ng of human TrkA, washed and blocked, and then added with serially diluted antibodies, and incubated at room temperature for 1 hour. After washing three times, horseradish peroxidase-conjugated goat anti-mouse Fc antibody (Biolegend, 405306) was added and incubated at room temperature for 1 hour. After washing three time, tetramethylbenzidine (TMB, Biolegend, 421101) was added for color development. 1M HCl was used to terminate the color development, and the absorbance values were read at 450 nm with a microplate reader.

EC50 [nM] | Binder
0.202 | B1
0.187 | B2
0.135 | B3

What follows are binders tested against T3, human TrkA extracellular region (33-417) protein containing mouse Fc (human, UniProt P04629 33-417) (assay: ELISA, coated human TrkA (33-417)-mouse Fc, anti-human IgG-HRP).
T3 construct: range 33-417
T3 sequence (P04629 33-417 limits assumed): as above
Description: Each well of a 96-well microtiter plate was coated with 50 ng of human TrkA, washed and blocked, then added with serially diluted humanized antibodies, and incubated for 1 hour at room temperature. After washing three times, horseradish peroxidase-conjugated goat anti-human IgG antibody (ThermoFisher, A18817) was added and reacted at room temperature for 1 hour. After washing three time, tetramethylbenzidine (TMB, Biolegend) was added for color development. 1M HCl was used to terminate the color development, and the absorbance values were read at 450 nm with a microplate reader.

EC50 [nM] | Binder
0.061 | B4
0.072 | B5
0.062 | B6

The binders below were run against T4, human TrkB expressed on CHO cells (TrkB/CHO, ThermoFisher K1491) (human, UniProt Q16620 32-822) (assay: flow cytometry on TrkB/CHO cells, FITC goat anti-human Fc).
T4 construct: whole, on cells
T4 sequence (Q16620 32-822): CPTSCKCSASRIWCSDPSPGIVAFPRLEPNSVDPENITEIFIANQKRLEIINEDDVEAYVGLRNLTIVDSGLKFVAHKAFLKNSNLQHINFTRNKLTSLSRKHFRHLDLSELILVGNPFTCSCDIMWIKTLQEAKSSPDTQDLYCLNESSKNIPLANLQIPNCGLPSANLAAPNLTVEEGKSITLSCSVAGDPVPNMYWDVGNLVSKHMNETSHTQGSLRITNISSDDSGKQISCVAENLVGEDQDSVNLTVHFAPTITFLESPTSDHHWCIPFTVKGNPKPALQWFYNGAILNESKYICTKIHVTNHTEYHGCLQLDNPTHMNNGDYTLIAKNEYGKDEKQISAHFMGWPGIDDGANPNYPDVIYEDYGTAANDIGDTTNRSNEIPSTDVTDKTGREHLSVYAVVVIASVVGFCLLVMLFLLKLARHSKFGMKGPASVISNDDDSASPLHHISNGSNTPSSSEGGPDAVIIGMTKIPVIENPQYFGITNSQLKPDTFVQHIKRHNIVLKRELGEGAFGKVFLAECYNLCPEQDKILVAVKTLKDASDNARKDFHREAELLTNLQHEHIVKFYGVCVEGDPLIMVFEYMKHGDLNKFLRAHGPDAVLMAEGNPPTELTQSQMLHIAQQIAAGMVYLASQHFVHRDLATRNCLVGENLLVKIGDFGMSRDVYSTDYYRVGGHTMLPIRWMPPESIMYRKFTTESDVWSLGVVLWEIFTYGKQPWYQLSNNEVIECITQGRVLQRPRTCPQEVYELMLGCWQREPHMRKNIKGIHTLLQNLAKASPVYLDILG
Description: (§3) CHO-K1 was used as a negative control. The binding of the humanized antibodies to the four cell lines was detected by flow cytometry.
as §1

binding result | Binder
no binding | B4
no binding | B5
no binding | B6

These binders were tested against T5, human TrkC expressed on CHO cells (TrkC/CHO, ThermoFisher K1515) (human, UniProt Q16288 32-839) (assay: flow cytometry on TrkC/CHO cells, FITC goat anti-human Fc).
T5 construct: whole, on cells
T5 sequence (Q16288 32-839): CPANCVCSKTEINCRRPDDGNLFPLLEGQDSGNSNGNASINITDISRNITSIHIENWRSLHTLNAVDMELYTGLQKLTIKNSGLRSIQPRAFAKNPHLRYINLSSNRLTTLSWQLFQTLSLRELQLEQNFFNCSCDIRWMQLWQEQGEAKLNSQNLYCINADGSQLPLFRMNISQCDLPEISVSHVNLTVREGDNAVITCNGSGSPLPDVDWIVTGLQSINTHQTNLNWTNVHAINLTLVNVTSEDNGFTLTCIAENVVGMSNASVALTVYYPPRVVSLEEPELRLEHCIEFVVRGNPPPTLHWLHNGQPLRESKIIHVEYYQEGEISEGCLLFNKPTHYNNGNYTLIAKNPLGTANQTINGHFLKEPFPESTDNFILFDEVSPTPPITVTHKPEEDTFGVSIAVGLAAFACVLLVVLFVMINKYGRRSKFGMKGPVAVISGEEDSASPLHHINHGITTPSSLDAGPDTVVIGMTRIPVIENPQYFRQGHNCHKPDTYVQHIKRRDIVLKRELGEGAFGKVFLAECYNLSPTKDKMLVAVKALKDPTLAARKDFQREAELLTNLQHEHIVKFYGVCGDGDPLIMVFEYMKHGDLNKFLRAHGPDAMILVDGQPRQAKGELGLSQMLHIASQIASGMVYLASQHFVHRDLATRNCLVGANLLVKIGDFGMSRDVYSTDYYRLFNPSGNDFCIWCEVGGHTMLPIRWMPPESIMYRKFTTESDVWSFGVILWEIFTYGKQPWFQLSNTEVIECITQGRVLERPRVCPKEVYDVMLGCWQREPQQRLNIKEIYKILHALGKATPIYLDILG
Description: as §3, §1

binding result | Binder
no binding | B4
no binding | B5
no binding | B6

Each binder was assayed against T6, rat TrkA extracellular region fusion protein (fused to human Fc) (Yiqiao Shenzhou 80243-R03H) (rat, UniProt P35739 33-418) (assay: ELISA, plate coated with rat TrkA extracellular region-hFc, HRP goat anti-mouse Fc detection).
T6 construct: extracellular domain; Bought fusion protein
T6 sequence (P35739 33-418, stated change not applied): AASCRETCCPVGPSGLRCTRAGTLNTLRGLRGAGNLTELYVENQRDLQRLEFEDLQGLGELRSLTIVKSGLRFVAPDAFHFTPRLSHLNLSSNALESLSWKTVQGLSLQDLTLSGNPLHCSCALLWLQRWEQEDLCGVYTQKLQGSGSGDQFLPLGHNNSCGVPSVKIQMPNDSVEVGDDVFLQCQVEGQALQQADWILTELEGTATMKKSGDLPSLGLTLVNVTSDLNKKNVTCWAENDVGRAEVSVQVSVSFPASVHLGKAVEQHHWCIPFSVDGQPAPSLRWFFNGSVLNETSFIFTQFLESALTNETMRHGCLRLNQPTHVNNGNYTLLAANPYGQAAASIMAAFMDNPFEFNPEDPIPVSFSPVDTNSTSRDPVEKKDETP
Description: as §2
(§4) In addition, the species cross-reactivities of anti-TrkA antibodies were detected with monkey TrkA (Hangzhou Haoyang Biotechnology Co., Ltd., HSP037-05), rat TrkA (Beijing Yiqiao Shenzhou Technology Co., Ltd., 80243-R03H), mouse TrkA (Beijing Yiqiao Shenzhou Technology Co., Ltd., 51103-M02H) extracellular region fusion protein (fused to human Fc).

binding result | Binder
binds | B1
binds | B2
binds | B3

The binders below were run against T2, TrkA extracellular region (33-417) … (assay: competition ELISA, coated TrkA (33-417)-hFc, antibody titrated, competitor biotin-labeled human NGF).
Description: Each well of a 96-well microtiter plate was coated with 50 ng of TrkA extracellular region (33-417) protein fused to human Fc, washed three times and blocked with 3% BSA for 1 hour. […] Each well was added with 100 μl and incubated at room temperature for 30 minutes. […] Streptavidin-labeled horseradish peroxidase (Streptavidin-HRP, Biolegend, 405210) was added and incubated for 0.5 hours. After washing three times, TMB was added to the plate, and the absorbance at 450 nm was read by a microplate reader after the color development was terminated.

IC50 [nM] | Binder
2.28 | B1
2.05 | B2
2.19 | B3

These binders were tested against T2, TrkA extracellular region (33-417) … (assay: BLI (ForteBio Octet Red96), TrkA (33-417)-hFc captured on anti-human Fc sensor, antibody in solution).
From the text: Example 3: Affinity Assay of Murine Anti-TrkA Antibodies Binding to Human TrkA The affinities of the antibodies were detected with Biomolecular Interaction Detection Platform (ForteBio Octet Red96 (PALL)).
Human TrkA extracellular region (33-417) protein containing human Fc tag was fixed onto a chip by using an anti-human Fc capture sensor (Fortebio, 18-5088), and then bound to gradient concentrations of anti-TrkA antibody.

Kd [nM] | koff [s⁻¹] | kon [M⁻¹ s⁻¹] | Binder
0.0271 | 2.49e-05 | 918000 | B1
0.00142 | 1.26e-06 | 889000 | B2
0.00677 | 9.91e-06 | 1.47e+06 | B3

What follows are binders tested against T7, mouse TrkA extracellular region fusion protein (fused to human Fc) (Yiqiao Shenzhou 51103-M02H) (mouse, UniProt Q3UFB7 34-420) (assay: ELISA, plate coated with mouse TrkA extracellular region-hFc, HRP goat anti-mouse Fc detection).
T7 construct: extracellular domain; Bought fusion protein
T7 sequence (Q3UFB7 34-420, stated change not applied): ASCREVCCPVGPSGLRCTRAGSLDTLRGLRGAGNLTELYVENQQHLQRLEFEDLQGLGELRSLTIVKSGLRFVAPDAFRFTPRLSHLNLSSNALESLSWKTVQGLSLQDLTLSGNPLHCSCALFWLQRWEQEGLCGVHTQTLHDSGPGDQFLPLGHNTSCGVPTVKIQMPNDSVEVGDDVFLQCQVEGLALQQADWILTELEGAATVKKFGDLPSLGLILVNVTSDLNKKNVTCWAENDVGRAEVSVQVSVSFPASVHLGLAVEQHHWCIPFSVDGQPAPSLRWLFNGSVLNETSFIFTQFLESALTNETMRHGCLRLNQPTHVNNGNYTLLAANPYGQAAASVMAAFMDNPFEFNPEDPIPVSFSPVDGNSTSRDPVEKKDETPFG
Description: as §2, §4

binding result | Binder
binds | B1
binds | B2
binds | B3

The binders below were run against T8, human TrkB extracellular region protein (Yiqiao Shenzhou 10047-H03H) (human, UniProt Q16620 32-430) (assay: ELISA, plate coated with human TrkB extracellular region protein, HRP goat anti-mouse Fc detection).
T8 construct: extracellular domain; Bought protein
T8 sequence (Q16620 32-430): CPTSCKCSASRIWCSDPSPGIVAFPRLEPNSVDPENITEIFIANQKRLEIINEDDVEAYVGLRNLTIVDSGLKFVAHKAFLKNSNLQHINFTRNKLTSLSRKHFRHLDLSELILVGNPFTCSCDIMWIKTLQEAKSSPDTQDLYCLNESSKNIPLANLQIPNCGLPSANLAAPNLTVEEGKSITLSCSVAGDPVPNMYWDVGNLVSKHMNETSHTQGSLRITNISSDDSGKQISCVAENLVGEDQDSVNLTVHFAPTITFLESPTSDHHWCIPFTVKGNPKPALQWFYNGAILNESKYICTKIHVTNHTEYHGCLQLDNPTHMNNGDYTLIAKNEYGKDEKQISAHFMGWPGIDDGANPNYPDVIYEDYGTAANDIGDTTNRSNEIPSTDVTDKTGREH
Description: as §2
(§5) Example 7: Detection of the Binding of Murine Anti-TrkA Antibodies to TrkA Proteins of the Same Family Each well of a 96-well microtiter plate was coated with 50 ng of human TrkA extracellular region protein, human TrkB extracellular region protein (Beijing Yiqiao Shenzhou Technology Co., Ltd., 10047-H03H), human TrkC extracellular region protein (Beijing Yiqiao Shenzhou Technology Co., Ltd., 10048-H03H). The bindings of the anti-TrkA antibodies to human TrkA and the two proteins of the same family were detected according to the method described in Example 2.

binding result | Binder
no binding (tested: 66.67 nM) | B1
no binding (tested: 66.67 nM) | B2
no binding (tested: 66.67 nM) | B3

Each binder was assayed against T9, human TrkC extracellular region protein (Yiqiao Shenzhou 10048-H03H) (human, UniProt Q16288 32-429) (assay: ELISA, plate coated with human TrkC extracellular region protein, HRP goat anti-mouse Fc detection).
T9 construct: extracellular domain; Bought protein
Description: as §2, §5

binding result | Binder
no binding (tested: 66.67 nM) | B1
no binding (tested: 66.67 nM) | B2
no binding (tested: 66.67 nM) | B3
